The target of this experiment is meditope-enabled trastuzumab. Put plainly: SPR. (In general: In SPR one partner is held on a chip, and binding of the other changes the refractive index at the surface.)
“meditope-protein L construct with zero length linker (designed binder)”: the Kd is 170 nM and the kon is 160000 M⁻¹ s⁻¹. In turn, “meditope-protein L construct with three-residue linker PSE (designed binder)” displayed a Kd of 1.3 nM. In turn, “meditope-protein L construct with six-residue linker GGGGSE (designed binder)” returned a Kd of 0.18 nM.

“meditope-protein L construct with six-residue linker GGPGSE (designed binder)” returned a Kd of 0.18 nM.

For the substance “meditope-protein L construct with six-residue linker PPPGPP (designed binder)”, the Kd was 1.1 nM.

The term Kd denotes the free concentration of one partner at which half of the binding sites on the other are occupied at equilibrium, for simple one-to-one binding. A low value points to higher affinity. The kon is a measure of how fast the partners come together.
